Test results from publication PMC3092982, “Zinc Binding to the Tyr402 and His402 Allotypes of Complement Factor H: Possible Implications for Age-Related Macular Degeneration” (Journal of Molecular Biology, 2011).
Substitutions are numbered along the chain they refer to.

B1: recombinant FH fragment SCR-6/8 Tyr402 (domain or fragment, human)
chain: LKPCDYPDIKHGGLYHENMRRPYFPVAVGKYYSYYCDEHFETPSGSYWDHIHCTQDGWSPAVPCLRKCYFPYLENGYNQNYGRKFVQGKSIDVACHPGYALPKAQTTVTCMENGWSPTPRCIRVKTCSKSSIDIENGFISESQYTYALKEKAKYQCKLGYVTADGETSGSITCGKDGWSAQPTCI
notes: complement factor H, human, SCR domains 6 to 8, Tyr402 allotype; It says that SCR-6/8, unlike SCR-1/5 and SCR-16/20, has no His6-tag; also called SCR-6/8 Tyr402 allotype; source: E. coli BL21 (DE3), pET21ab
B2: recombinant FH fragment SCR-6/8 His402 (domain or fragment, human)
chain: B1 chain with Y81H
notes: complement factor H, human, SCR domains 6 to 8, His402 allotype; It says that SCR-6/8, unlike SCR-1/5 and SCR-16/20, has no His6-tag; PDB 2UWN is a cited crystal structure of SCR-6/8 His402 whose limits may differ from this construct; also called SCR-6/8 His402 allotype; source: E. coli BL21 (DE3)pLysS, pET14b

Biological target: the molecule itself
Assay: AUC; sedimentation velocity, SCR-6/8 at 0.3 mg/ml (14.6 μM), Hepes buffer, 20 °C, 50,000 rpm, c(s) analysis; monomer and dimer peaks seen throughout the ZnSO4 titration 0.2-600 μM

| Protein | stoichiometry N |
| --- | --- |
| B1 | 2 |
| B2 | 2 |
